Results reported in paper PMC3701661, “The Serine Protease Domain of MASP-3: Enzymatic Properties and Crystal Structure in Complex with Ecotin” (PLoS ONE, 2013).

What was measured:
[1] = target: T1, MASP-3 serine protease (SP) domain (human, UniProt P48740-2 450-728, three N-linked oligosaccharide chains comprising two N-acetylglucosamine and five mannose residues); assay: SPR; ecotin (1,000 RU) amine-coupled on a CM5 chip; proteases injected at 20 µl/min in 145 mM NaCl, 50 mM triethanolamine-HCl, pH 7.4, 0.005% surfactant P20; global fit to a 1:1 Langmuir model, at least five concentrations; apparent KD = kd/ka; details: both partners purified
T1 construct: numbers count on: the mature protein; Secreted with the melittin signal peptide, which was processed; also called MASP-3 SP; MASP-3 SP domain
T1 sequence (looked up): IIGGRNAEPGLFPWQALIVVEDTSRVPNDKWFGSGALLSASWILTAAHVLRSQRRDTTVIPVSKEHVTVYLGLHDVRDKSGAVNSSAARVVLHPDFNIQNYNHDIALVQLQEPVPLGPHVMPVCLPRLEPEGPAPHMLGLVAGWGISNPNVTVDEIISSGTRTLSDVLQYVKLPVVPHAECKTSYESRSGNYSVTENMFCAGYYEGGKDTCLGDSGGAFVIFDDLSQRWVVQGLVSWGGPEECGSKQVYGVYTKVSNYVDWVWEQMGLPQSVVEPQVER

[2] = target: T2, Coagulation factor XIa (human plasma) (human, UniProt P03951 19-387; P03951 388-625); assay: as above; details: both partners purified
T2 construct: coagulation factor XIa heavy chain, human plasma; coagulation factor XIa light chain (catalytic domain), human plasma; also called fXIa; source: bought: Calbiochem (human plasma)
T2 sequence (P03951 19-387, chain 1 of 2): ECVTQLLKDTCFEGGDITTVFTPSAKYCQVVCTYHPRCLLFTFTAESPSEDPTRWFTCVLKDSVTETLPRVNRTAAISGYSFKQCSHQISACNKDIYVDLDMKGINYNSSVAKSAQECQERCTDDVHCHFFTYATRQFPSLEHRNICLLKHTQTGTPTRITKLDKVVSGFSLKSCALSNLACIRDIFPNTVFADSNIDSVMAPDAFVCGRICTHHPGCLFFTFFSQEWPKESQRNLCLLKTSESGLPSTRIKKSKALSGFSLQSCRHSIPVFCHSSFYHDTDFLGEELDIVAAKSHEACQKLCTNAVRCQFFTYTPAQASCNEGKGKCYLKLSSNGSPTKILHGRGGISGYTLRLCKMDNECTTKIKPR
T2 sequence (P03951 388-625, chain 2 of 2): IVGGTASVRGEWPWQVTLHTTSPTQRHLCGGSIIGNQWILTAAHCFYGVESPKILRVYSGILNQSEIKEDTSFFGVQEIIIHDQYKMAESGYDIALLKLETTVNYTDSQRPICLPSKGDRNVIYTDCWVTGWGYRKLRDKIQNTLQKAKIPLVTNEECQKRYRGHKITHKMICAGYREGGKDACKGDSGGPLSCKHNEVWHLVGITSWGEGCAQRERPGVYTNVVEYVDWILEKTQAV

[3] = target: T3, MASP-2 CCP1/2-ap-SP fragment (human, UniProt O00187 298-686); assay: as above; details: both partners purified
T3 construct: also called CCP1/2-ap-SP fragment of MASP-2; catalytic domain of MASP-2; source: baculovirus-infected insect cells, purified
T3 sequence (O00187 298-686): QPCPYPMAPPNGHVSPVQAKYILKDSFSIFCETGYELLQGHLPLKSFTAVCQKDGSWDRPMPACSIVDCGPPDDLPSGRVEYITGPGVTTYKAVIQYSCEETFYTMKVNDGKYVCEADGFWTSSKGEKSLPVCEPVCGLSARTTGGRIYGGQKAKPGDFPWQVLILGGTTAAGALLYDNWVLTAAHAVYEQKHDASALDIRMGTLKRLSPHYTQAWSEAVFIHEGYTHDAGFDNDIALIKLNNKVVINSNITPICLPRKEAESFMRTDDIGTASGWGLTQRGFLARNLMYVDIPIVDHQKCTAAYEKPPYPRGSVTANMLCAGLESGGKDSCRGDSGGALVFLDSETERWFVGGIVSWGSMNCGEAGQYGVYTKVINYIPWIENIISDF

[4] = target: the molecule itself; assay: SEC; MASP-3 SP and ecotin preincubated 20 min at room temperature (equimolar, 225 pmol; also various molar ratios), TSK G3000 SW column in 145 mM NaCl, 50 mM triethanolamine-HCl, pH 7.4, 1 ml/min; peaks analysed by N-terminal sequencing and SDS-PAGE
[5] = target: T1, MASP-3 serine protease (SP) domain; assay: cell-based or functional assay

B1: Ecotin (E. coli pan-serine protease inhibitor) (natural protein)
chain: not shown
notes: residues numbered 1 onwards in the structure (P1 residue Met84); Homodimer (molecular mass 32 kDa as printed); also called ecotin dimer; source: bought: Gentaur Molecular Products
Q: For B1, which Kd [1] is on record?
A: 601 nM

Q: What about the koff [1] of the same binder?
A: 0.000806 s⁻¹

Q: And the kon [1]?
A: 1340 M⁻¹ s⁻¹

Q: And the Kd [2]?
A: 1.38 nM

Q: And the koff [2]?
A: 0.000169 s⁻¹

Q: And the kon [2]?
A: 123000 M⁻¹ s⁻¹

Q: And the Kd [3]?
A: 24.7 nM

Q: And the koff [3]?
A: 0.00228 s⁻¹

Q: And the kon [3]?
A: 104000 M⁻¹ s⁻¹

Q: And the “stoichiometry N” value [4]?
A: 2

Q: And the “inhibition of FGR-AMC cleavage by the MASP-3 SP domain after incubation with ecotin at a 1:1 molar ratio” value [5]?
A: 82%
